Measurements taken from patent US20250099534A1 (TECHNION RESEARCH AND DEVELOPMENT FOUNDATION, published 2025).
Starred links: 1 amine or outer side, 2 acyl side, 3 side chain; linkers in the order of their positions; H or OH if unused. Positions of bridges follow the written chain, without caps; N, C: chain ends. mBz = 3-(methylene)benzoyl on the N-terminal amine, O=C(c1cccc(C[*:3])c1)[*:2]

Target: T1, biotinylated-Lys63 linked Di-Ub (UniProt P0CG47 1-76, isopeptide bond between the C-terminal Gly of the distal Ub and Lys63 of the proximal Ub; biotin tag at the N-terminus of the distal Ub)
T1 construct: mature; Immobilised on streptavidin plates or on the SPR CAPture chip; also called K63-linked Di-Ub; biotin-Lys63 linked Di-Ub
Experiment: fluorescence-based competitive assay: unlabeled peptide, 5.0 molar equiv., pre-bound to biotinylated Lys63-linked Di-Ub on a streptavidin plate, then competed with CP1-FITC (1 equiv.); signal change relative to 1 (CP1), Y=[1-(a/b)]x100
Protocol: Streptavidin-coated microplate (96 well plate) was washed with HEPES buffer (50 Mm HEPES, 150 Mm NaCl, pH 7.30) and then in each well incubated 1 μg of biotinylated-Lys63-linked Di-Ub in 100 μl of the same buffer at RT. for 30 min. Additional wells were kept without biotinylated-Lys63-Di-Ub for blank subtraction. After the washing step, peptide standard (CP1) and unlabeled peptides were incubated (5.0 molar equivalent relative to biotin-Lys63-linked Di-Ub) at RT for 30 minutes for saturation binding to the target. Then 1 molar equivalent of FITC labeled peptide-standard (CP1-FITC) relative to biotinylated-Lys63-linked Di-Ub was incubated to compete with unlabeled peptides at RT for 30 min. After releasing bounded peptides on treatment with 6 M Guanidinium chloride (Gnd·HCl), the fluorescence values were measured (λex=480 nm and λem=525 nm). These values were normalized and then calculated the relative change in binding with the following formula:
Y=[1−(a/b)]×100 [0289] Where Y=Signal change relative to the standard (CP1) (in terms of %). [0290] a=Measured signal value of each peptide candidate (in Relative Fluorescence Units). [0291] b=Measured signal value of standard peptide (CP1). The dissociation constant (KD) of fluorescein-labeled peptide (CP1-FITC) was calculated in accordance with the literature procedure (Vamisetti G B et al., 2021).

Row | Binder | binding result
1 | mBz-LCIWIGSSKNPYILCG-NH2 (thioether N-15; SMILES CC[C@H](C)[C@@H]1NC(=O)[C@H](Cc2c[nH]c3ccccc23)NC(=O)[C@H]([C@@H](C)CC)NC(=O)[C@H](CS)NC(=O)[C@H](CC(C)C)NC(=O)c2cccc(c2)CSC[C@@H](C(=O)NCC(N)=O)NC(=O)[C@H](CC(C)C)NC(=O)[C@H]([C@@H](C)CC)NC(=O)[C@H](Cc2ccc(O)cc2)NC(=O)[C@@H]2CCCN2C(=O)[C@H](CC(N)=O)NC(=O)[C@H](CCCCN)NC(=O)[C@H](CO)NC(=O)[C@H](CO)NC(=O)CNC1=O, also called CP1-L2C; cyclic peptide 3) [3] | binds
2 | mBz-LLICIGSSKNPYILCG-NH2 (thioether N-15; SMILES CC[C@H](C)[C@@H]1NC(=O)[C@H](CS)NC(=O)[C@H]([C@@H](C)CC)NC(=O)[C@H](CC(C)C)NC(=O)[C@H](CC(C)C)NC(=O)c2cccc(c2)CSC[C@@H](C(=O)NCC(N)=O)NC(=O)[C@H](CC(C)C)NC(=O)[C@H]([C@@H](C)CC)NC(=O)[C@H](Cc2ccc(O)cc2)NC(=O)[C@@H]2CCCN2C(=O)[C@H](CC(N)=O)NC(=O)[C@H](CCCCN)NC(=O)[C@H](CO)NC(=O)[C@H](CO)NC(=O)CNC1=O, also called CP1-W4C; cyclic peptide 5) [5] | binds
3 | mBz-LLIWIGSSKCPYILCG-NH2 (thioether N-15; SMILES CC[C@H](C)[C@@H]1NC(=O)[C@H](Cc2c[nH]c3ccccc23)NC(=O)[C@H]([C@@H](C)CC)NC(=O)[C@H](CC(C)C)NC(=O)[C@H](CC(C)C)NC(=O)c2cccc(c2)CSC[C@@H](C(=O)NCC(N)=O)NC(=O)[C@H](CC(C)C)NC(=O)[C@H]([C@@H](C)CC)NC(=O)[C@H](Cc2ccc(O)cc2)NC(=O)[C@@H]2CCCN2C(=O)[C@H](CS)NC(=O)[C@H](CCCCN)NC(=O)[C@H](CO)NC(=O)[C@H](CO)NC(=O)CNC1=O, also called CP1-N10C; cyclic peptide 10) [10] | binds
4 | mBz-LLIWIGSCKNPYILCG-NH2 (thioether N-15; SMILES CC[C@H](C)[C@@H]1NC(=O)[C@H](Cc2c[nH]c3ccccc23)NC(=O)[C@H]([C@@H](C)CC)NC(=O)[C@H](CC(C)C)NC(=O)[C@H](CC(C)C)NC(=O)c2cccc(c2)CSC[C@@H](C(=O)NCC(N)=O)NC(=O)[C@H](CC(C)C)NC(=O)[C@H]([C@@H](C)CC)NC(=O)[C@H](Cc2ccc(O)cc2)NC(=O)[C@@H]2CCCN2C(=O)[C@H](CC(N)=O)NC(=O)[C@H](CCCCN)NC(=O)[C@H](CS)NC(=O)[C@H](CO)NC(=O)CNC1=O, also called CP1-S8C; cyclic peptide 9) [9] | binds
5 | mBz-LLIWICSSKNPYILCG-NH2 (thioether N-15; SMILES CC[C@H](C)[C@@H]1NC(=O)[C@H](Cc2c[nH]c3ccccc23)NC(=O)[C@H]([C@@H](C)CC)NC(=O)[C@H](CC(C)C)NC(=O)[C@H](CC(C)C)NC(=O)c2cccc(c2)CSC[C@@H](C(=O)NCC(N)=O)NC(=O)[C@H](CC(C)C)NC(=O)[C@H]([C@@H](C)CC)NC(=O)[C@H](Cc2ccc(O)cc2)NC(=O)[C@@H]2CCCN2C(=O)[C@H](CC(N)=O)NC(=O)[C@H](CCCCN)NC(=O)[C@H](CO)NC(=O)[C@H](CO)NC(=O)[C@H](CS)NC1=O, also called CP1-G6C; cyclic peptide 7) [7] | binds
6 | mBz-LLIWCGSSKNPYILCG-NH2 (thioether N-15; SMILES CC[C@H](C)[C@@H]1NC(=O)[C@H](CC(C)C)NC(=O)[C@H](CC(C)C)NC(=O)c2cccc(c2)CSC[C@@H](C(=O)NCC(N)=O)NC(=O)[C@H](CC(C)C)NC(=O)[C@H]([C@@H](C)CC)NC(=O)[C@H](Cc2ccc(O)cc2)NC(=O)[C@@H]2CCCN2C(=O)[C@H](CC(N)=O)NC(=O)[C@H](CCCCN)NC(=O)[C@H](CO)NC(=O)[C@H](CO)NC(=O)CNC(=O)[C@H](CS)NC(=O)[C@H](Cc2c[nH]c3ccccc23)NC1=O, also called CP1-I5C; cyclic peptide 6) [6] | binds
7 | mBz-LLIWIGSSKNPCILCG-NH2 (thioether N-15; SMILES CC[C@H](C)[C@@H]1NC(=O)[C@H](Cc2c[nH]c3ccccc23)NC(=O)[C@H]([C@@H](C)CC)NC(=O)[C@H](CC(C)C)NC(=O)[C@H](CC(C)C)NC(=O)c2cccc(c2)CSC[C@@H](C(=O)NCC(N)=O)NC(=O)[C@H](CC(C)C)NC(=O)[C@H]([C@@H](C)CC)NC(=O)[C@H](CS)NC(=O)[C@@H]2CCCN2C(=O)[C@H](CC(N)=O)NC(=O)[C@H](CCCCN)NC(=O)[C@H](CO)NC(=O)[C@H](CO)NC(=O)CNC1=O, also called CP1-Y12C; cyclic peptide 12) [12] | binds
8 | mBz-LLIWIGSSKNCYILCG-NH2 (thioether N-15; SMILES CC[C@H](C)[C@@H]1NC(=O)[C@H](Cc2c[nH]c3ccccc23)NC(=O)[C@H]([C@@H](C)CC)NC(=O)[C@H](CC(C)C)NC(=O)[C@H](CC(C)C)NC(=O)c2cccc(c2)CSC[C@@H](C(=O)NCC(N)=O)NC(=O)[C@H](CC(C)C)NC(=O)[C@H]([C@@H](C)CC)NC(=O)[C@H](Cc2ccc(O)cc2)NC(=O)[C@H](CS)NC(=O)[C@H](CC(N)=O)NC(=O)[C@H](CCCCN)NC(=O)[C@H](CO)NC(=O)[C@H](CO)NC(=O)CNC1=O, also called CP1-P11C; cyclic peptide 11) [11] | binds
9 | mBz-LLIWIGSSKNPYCLCG-NH2 (thioether N-15; SMILES CC[C@H](C)[C@@H]1NC(=O)[C@H](Cc2c[nH]c3ccccc23)NC(=O)[C@H]([C@@H](C)CC)NC(=O)[C@H](CC(C)C)NC(=O)[C@H](CC(C)C)NC(=O)c2cccc(c2)CSC[C@@H](C(=O)NCC(N)=O)NC(=O)[C@H](CC(C)C)NC(=O)[C@H](CS)NC(=O)[C@H](Cc2ccc(O)cc2)NC(=O)[C@@H]2CCCN2C(=O)[C@H](CC(N)=O)NC(=O)[C@H](CCCCN)NC(=O)[C@H](CO)NC(=O)[C@H](CO)NC(=O)CNC1=O, also called CP1-I13C; cyclic peptide 13) [13] | binds
10 | mBz-LLCWIGSSKNPYILCG-NH2 (thioether N-15; SMILES CC[C@H](C)[C@@H]1NC(=O)[C@H](Cc2c[nH]c3ccccc23)NC(=O)[C@H](CS)NC(=O)[C@H](CC(C)C)NC(=O)[C@H](CC(C)C)NC(=O)c2cccc(c2)CSC[C@@H](C(=O)NCC(N)=O)NC(=O)[C@H](CC(C)C)NC(=O)[C@H]([C@@H](C)CC)NC(=O)[C@H](Cc2ccc(O)cc2)NC(=O)[C@@H]2CCCN2C(=O)[C@H](CC(N)=O)NC(=O)[C@H](CCCCN)NC(=O)[C@H](CO)NC(=O)[C@H](CO)NC(=O)CNC1=O, also called CP1-I3C; cyclic peptide 4) [4] | binds
11 | mBz-LLIWIGCSKNPYILCG-NH2 (thioether N-15; SMILES CC[C@H](C)[C@@H]1NC(=O)[C@H](Cc2c[nH]c3ccccc23)NC(=O)[C@H]([C@@H](C)CC)NC(=O)[C@H](CC(C)C)NC(=O)[C@H](CC(C)C)NC(=O)c2cccc(c2)CSC[C@@H](C(=O)NCC(N)=O)NC(=O)[C@H](CC(C)C)NC(=O)[C@H]([C@@H](C)CC)NC(=O)[C@H](Cc2ccc(O)cc2)NC(=O)[C@@H]2CCCN2C(=O)[C@H](CC(N)=O)NC(=O)[C@H](CCCCN)NC(=O)[C@H](CO)NC(=O)[C@H](CS)NC(=O)CNC1=O, also called CP1-S7C; cyclic peptide 8) [8] | binds
